According to patent US20190023739A1 (TOKUSHIMA UNIVERSITY, published 2019):

Biological target: T1, His-tagged recombinant PHB2 (UniProt Q99623 1-299, limits assumed)
T1 construct: also called prohibitin 2; REA; not shown: His tag
Experiment: surface plasmon resonance (BiAcore) interaction analysis

T1 sequence (Q99623 whole entry): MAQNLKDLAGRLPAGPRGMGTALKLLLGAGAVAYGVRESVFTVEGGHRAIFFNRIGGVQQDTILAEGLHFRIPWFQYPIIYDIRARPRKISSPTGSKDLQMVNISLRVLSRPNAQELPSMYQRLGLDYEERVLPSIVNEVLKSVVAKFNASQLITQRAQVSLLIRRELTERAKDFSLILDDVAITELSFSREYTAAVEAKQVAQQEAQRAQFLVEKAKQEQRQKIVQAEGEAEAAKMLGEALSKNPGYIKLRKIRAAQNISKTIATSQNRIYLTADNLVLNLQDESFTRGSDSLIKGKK

B1: 11R-ERAP (11R-GGG-QMLSDLTLQLRQR) (peptide)
peptide: RRRRRRRRRRRGGGQMLSDLTLQLRQR
notes: Unstapled control peptide, synthesized as in Yoshimaru et al. 2013; also called dominant negative peptide
Kd: 12.8 µM
